± gives the uncertainty stated by the source.
Test: self-splicing fitness, log relative to wild type (ln ratio); higher = more splicing; Tetrahymena group I intron in knt gene, E. coli kanamycin selection, DiMSum; sequences stand for … in CUCUCU…GGAGGGAAAAGUUAUCAGGCAUGCACCUGGUAGCUAGUCUUUAAACCAAUAGAUUGCAUCGGUUUAAAAGGCAAGACCGUCAAAUUGCGGGAAAGGGGUCAACAGCCGUUCAGUACCAAGUCUCAGGGGAAACUUUGAGAUGGCCUUGCAAAGGGUAUGGUAAUAAGCUGACGGACAUGGUCCUAACCACGCAGCCAAGUCCUAAGUCAACAGAUCUUCUGUUGAUAUGGAUGCAGUUCACAGACUAAAUGUCGGUCGGGGAAGAUGUAUUCUUCUCAUAAGAUAUAGUCGGACCUCUCCUUAAUGGGAGCUAGCGGAUGAAGUGAUGCAACACUGGAGCCGCUGGGAACUAAUUUGUAUGCGAAAGUAUAUUGAUUAGUUUUGGAGUACUCGUGGUCG
Method in brief: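 Colonies from six replicate transformations of E. coli BL21(DE3) were pooled and amplicon-sequenced on an Illumina HiSeq 2500. The library placed an intron with all eight P1ex-region nucleotides randomised inside the knt kanamycin-resistance gene on pET-22b(+), and cells grew overnight at 37°C or 30°C on LB agar with or without 25 μg/mL kanamycin (plus 100 μg/mL carbenicillin, 50 μM IPTG, 0.2% rhamnose). Fitness is the DiMSum error-weighted combination of wild-type-normalised replicate fold changes, kanamycin versus none.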

Sequence | self-splicing fitness (ln) (30 °C) | self-splicing fitness (ln) (37 °C)
AUAUAGCAAUAUUACGUGGG | -3.53 ± 0.28 | -3.28 ± 0.33
AUAUAGCAAUAUUACGUUCC | -1.69 ± 0.29 | 
AUCAAGCAAUAUUACGACCA | -0.886 ± 0.13 | 0.0541 ± 0.14
AUCAAGCAAUAUUACGACGU | 0.145 ± 0.071 | -0.14 ± 0.067
AUCAAGCAAUAUUACGACUU | -0.501 ± 0.049 | 0.297 ± 0.064
AUCAAGCAAUAUUACGAGUU | -1.57 ± 0.081 | -1.42 ± 0.097
AUCAAGCAAUAUUACGAUGA | -0.483 ± 0.076 | -0.19 ± 0.086
AUCAAGCAAUAUUACGCACA | -0.256 ± 0.066 | -0.0877 ± 0.076
AUCAAGCAAUAUUACGCACG | -2.1 ± 0.15 | -2.28 ± 0.18
AUCAAGCAAUAUUACGCAUG | -3.06 ± 0.12 | -1.56 ± 0.098
AUCAAGCAAUAUUACGCCAU | -2.88 ± 0.19 | -1.44 ± 0.13
AUCAAGCAAUAUUACGCCUC | -2.77 ± 0.23 | -1.6 ± 0.21
AUCAAGCAAUAUUACGCGUU | -2.66 ± 0.089 | -0.858 ± 0.095
AUCAAGCAAUAUUACGCUAA | -2.95 ± 0.17 | -1.1 ± 0.14
AUCAAGCAAUAUUACGCUGU | -2.62 ± 0.097 | -1.1 ± 0.084
AUCAAGCAAUAUUACGGAAC | -4.1 ± 0.15 | -2.3 ± 0.12
AUCAAGCAAUAUUACGGACA | -0.967 ± 0.075 | -0.478 ± 0.093
AUCAAGCAAUAUUACGGAGA | -2.57 ± 0.16 | -2.81 ± 0.24
AUCAAGCAAUAUUACGGCUG | -0.736 ± 0.071 | -0.0189 ± 0.11
AUCAAGCAAUAUUACGGGAG | -1.16 ± 0.097 | -0.571 ± 0.099
AUCAAGCAAUAUUACGGGGU | -3.94 ± 0.2 | -2.48 ± 0.15
AUCAAGCAAUAUUACGGUUA | -1.06 ± 0.092 | -0.342 ± 0.095
AUCAAGCAAUAUUACGUCGA | -1.36 ± 0.068 | -0.157 ± 0.068
AUCAAGCAAUAUUACGUGGU | -2.83 ± 0.2 | -3.11 ± 0.21

Sequence | self-splicing fitness (ln) (30 °C) | self-splicing fitness (ln) (37 °C)
AUCCAGCAAUAUUACGAAGA | -1.56 ± 0.18 | -1.64 ± 0.16
AUCCAGCAAUAUUACGAAGG | -3.07 ± 0.2 | -2.8 ± 0.23
AUCCAGCAAUAUUACGACAC | -0.468 ± 0.11 | -0.488 ± 0.16
AUCCAGCAAUAUUACGACGA | -0.497 ± 0.14 | 0.0611 ± 0.12
AUCCAGCAAUAUUACGACGU | -0.176 ± 0.057 | 0.696 ± 0.081
AUCCAGCAAUAUUACGACUA | -0.459 ± 0.097 | -0.0254 ± 0.084
AUCCAGCAAUAUUACGAGUA | -2.01 ± 0.18 | -1.07 ± 0.12
AUCCAGCAAUAUUACGAGUG | -1.66 ± 0.095 | -1.77 ± 0.11
AUCCAGCAAUAUUACGAUAU | -0.123 ± 0.075 | -0.114 ± 0.071
AUCCAGCAAUAUUACGAUCA | -1.43 ± 0.12 | -1.09 ± 0.14
AUCCAGCAAUAUUACGAUCU | -1.84 ± 0.091 | -0.641 ± 0.12
AUCCAGCAAUAUUACGCAUA | -1.19 ± 0.12 | -0.443 ± 0.12
AUCCAGCAAUAUUACGCGCC | -0.363 ± 0.14 | 0.126 ± 0.17
AUCCAGCAAUAUUACGCUCA | 0.0746 ± 0.13 | 0.8 ± 0.17
AUCCAGCAAUAUUACGGAAC | -2.68 ± 0.18 | -1.06 ± 0.15
AUCCAGCAAUAUUACGGAUC | -3.35 ± 0.18 | -3.11 ± 0.2
AUCCAGCAAUAUUACGGGCC | -1.23 ± 0.2 | -1.24 ± 0.33
AUCCAGCAAUAUUACGGGCG | -0.327 ± 0.066 | 0.25 ± 0.089
AUCCAGCAAUAUUACGGUCC | -1.39 ± 0.13 | -0.176 ± 0.21
AUCCAGCAAUAUUACGGUGU | -1.07 ± 0.062 | -0.834 ± 0.079
AUCCAGCAAUAUUACGUAGU | -1.54 ± 0.074 | -0.703 ± 0.093
AUCCAGCAAUAUUACGUAUA | -0.94 ± 0.11 | -1.11 ± 0.14
AUCCAGCAAUAUUACGUCUU | -0.371 ± 0.065 | 0.716 ± 0.081
AUCCAGCAAUAUUACGUGAU | -2.15 ± 0.1 | -1.04 ± 0.12

Sequence | self-splicing fitness (ln) (30 °C) | self-splicing fitness (ln) (37 °C)
AUCCAGCAAUAUUACGUGGA | -4.34 ± 0.39 | -2.23 ± 0.19
AUCCAGCAAUAUUACGUUAU | -1.36 ± 0.072 | -0.198 ± 0.089
AUCCAGCAAUAUUACGUUUG | -2.58 ± 0.12 | -2.93 ± 0.18
AUCGAGCAAUAUUACGAACU | -1.06 ± 0.17 | -0.725 ± 0.19
AUCGAGCAAUAUUACGACGA | -0.908 ± 0.099 | -0.324 ± 0.13
AUCGAGCAAUAUUACGAGAA |  | -2.44 ± 0.34
AUCGAGCAAUAUUACGAUCU | -1.58 ± 0.086 | -0.957 ± 0.08
AUCGAGCAAUAUUACGAUGA | -3.37 ± 0.25 | -1.86 ± 0.16
AUCGAGCAAUAUUACGAUUG | -4.49 ± 0.46 | -3.32 ± 0.26
AUCGAGCAAUAUUACGCAGG | -3.53 ± 0.28 | -2.77 ± 0.22
AUCGAGCAAUAUUACGCCCG | -3.48 ± 0.36 | -0.807 ± 0.32
AUCGAGCAAUAUUACGCCGG | -1.43 ± 0.22 | -1.57 ± 0.3
AUCGAGCAAUAUUACGCUGA |  | -1.82 ± 0.32
AUCGAGCAAUAUUACGGAAA |  | -2.64 ± 0.34
AUCGAGCAAUAUUACGGCCU | -3.22 ± 0.3 | -1.2 ± 0.17
AUCGAGCAAUAUUACGGGAU | -2.82 ± 0.15 | -1.78 ± 0.19
AUCGAGCAAUAUUACGGGCA | -1.99 ± 0.23 | -1.32 ± 0.27
AUCGAGCAAUAUUACGGUUU | -2.08 ± 0.091 | -1.71 ± 0.099
AUCGAGCAAUAUUACGUAAU | -1.91 ± 0.12 | -1.25 ± 0.13
AUCGAGCAAUAUUACGUACC | -3.76 ± 0.35 | -1.53 ± 0.34
AUCGAGCAAUAUUACGUGAA | -2.75 ± 0.14 | -1.83 ± 0.16
AUCGAGCAAUAUUACGUGUU | -2.9 ± 0.22 | -2.42 ± 0.29
AUCGAGCAAUAUUACGUUAC | -3.04 ± 0.28 | -1.82 ± 0.27
AUCGAGCAAUAUUACGUUCA | -0.62 ± 0.095 | -0.544 ± 0.13

Sequence | self-splicing fitness (ln) (30 °C) | self-splicing fitness (ln) (37 °C)
AUCUAGCAAUAUUACGACGC | -0.785 ± 0.089 | -0.226 ± 0.13
AUCUAGCAAUAUUACGAUCC | -1.97 ± 0.18 | -0.573 ± 0.26
AUCUAGCAAUAUUACGAUGA | -1.03 ± 0.091 | -0.237 ± 0.091
AUCUAGCAAUAUUACGCCAA |  | -0.995 ± 0.48
AUCUAGCAAUAUUACGCGGU | -2.85 ± 0.18 | -2.73 ± 0.26
AUCUAGCAAUAUUACGCGUC | -3.53 ± 0.39 | -1.07 ± 0.18
AUCUAGCAAUAUUACGGCAU | 0.455 ± 0.096 | 0.24 ± 0.1
AUCUAGCAAUAUUACGGCUU | -0.0659 ± 0.1 | 0.305 ± 0.12
AUCUAGCAAUAUUACGGGCC | -3.15 ± 0.23 | -2.18 ± 0.22
AUCUAGCAAUAUUACGGGUG | -1.93 ± 0.067 | -0.57 ± 0.067
AUCUAGCAAUAUUACGGGUU | -3.51 ± 0.15 | -3.09 ± 0.21
AUCUAGCAAUAUUACGUACC | -1.3 ± 0.091 | -0.395 ± 0.11
AUCUAGCAAUAUUACGUACU | -0.329 ± 0.082 | -0.199 ± 0.11
AUCUAGCAAUAUUACGUCGC | -3.06 ± 0.47 | -1.86 ± 0.49
AUCUAGCAAUAUUACGUGCU | -2.25 ± 0.17 | -1.97 ± 0.28
AUCUAGCAAUAUUACGUGUA | -2.44 ± 0.12 | -1.31 ± 0.11
AUCUAGCAAUAUUACGUUCA | -1.33 ± 0.099 | -0.242 ± 0.085
AUGAAGCAAUAUUACGACCA | 0.00939 ± 0.06 | 0.489 ± 0.083
AUGAAGCAAUAUUACGACGC | 0.112 ± 0.13 | -0.034 ± 0.17
AUGAAGCAAUAUUACGAUCA | -0.14 ± 0.081 | 0.405 ± 0.11
AUGAAGCAAUAUUACGCAAG | -0.379 ± 0.085 | -0.121 ± 0.11
AUGAAGCAAUAUUACGCGAA | -1.15 ± 0.087 | -0.0789 ± 0.093
AUGAAGCAAUAUUACGCUCC | -0.958 ± 0.32 | 0.251 ± 0.35
AUGAAGCAAUAUUACGCUGA | -1.2 ± 0.13 | -1.24 ± 0.17

Reference: the supplement of paper PMC7877785
